These results are taken from patent EP4667489A1 (Kyinno Biotechnology Co., Ltd., dated 2025).

As a reminder, the Kd is the concentration at which binding is half-saturated. By koff is commonly meant the first-order rate constant of dissociation. The low end stands for slow dissociation, the high end for fast dissociation. Usually kon stands for the second-order rate constant of association. Low readings indicate slow association, high ones fast association. What is called IC50 is the concentration that gives 50% inhibition. The term EC50 denotes the midpoint of the concentration-response curve.

Residue numbers refer to the chain shown, from its start. Names and notes keep the numbering of the source.

For assay [1], the target named is T1, LAG3-His (ACRO, Cat No.: LA3-H5222) (UniProt P18627 23-450).
T1 construct: bought protein; not shown: His tag
T1 sequence (looked up): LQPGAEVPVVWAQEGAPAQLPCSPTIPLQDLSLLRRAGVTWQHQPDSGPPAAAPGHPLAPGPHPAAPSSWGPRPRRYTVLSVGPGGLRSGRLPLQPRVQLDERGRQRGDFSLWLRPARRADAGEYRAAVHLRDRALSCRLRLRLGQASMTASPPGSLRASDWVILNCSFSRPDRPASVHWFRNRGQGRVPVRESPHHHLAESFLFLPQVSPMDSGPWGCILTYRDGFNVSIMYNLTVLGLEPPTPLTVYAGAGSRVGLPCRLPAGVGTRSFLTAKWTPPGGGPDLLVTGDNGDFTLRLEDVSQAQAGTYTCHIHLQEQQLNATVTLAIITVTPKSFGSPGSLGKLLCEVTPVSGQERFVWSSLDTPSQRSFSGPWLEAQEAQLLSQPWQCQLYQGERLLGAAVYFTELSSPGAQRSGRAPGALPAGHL
The assay is described as follows: BLI (ForteBio Octet), LAG3-His as mobile phase. For orientation: BLI is a label-free optical method that tracks binding on a fibre tip over time.

Assay [2] addresses T2, LAG3-mFc (fusion protein of the human LAG3 extracellular domain and mouse IgG2a-Fc) (human; mouse, UniProt P18627 23-450).
T2 construct: extracellular domain; also called human LAG3-mFc; not shown: mouse IgG2a-Fc, Genbank AAH31470.1
T2 sequence (looked up): T1 sequence (looked up)
Kind of assay: flow cytometry, blocking of LAG3-mFc binding to Daudi cells. For orientation: In flow cytometry, cells or beads pass a laser one at a time.

Assay [3] deals with T3, human LAG3 expressed on 293T-LAG3 cells (human, UniProt P18627 23-525).
T3 construct: whole, on cells; 293T cells stably expressing human LAG3 (Kyinno KC-0214); also called LAG3-expressing cells
T3 sequence (looked up): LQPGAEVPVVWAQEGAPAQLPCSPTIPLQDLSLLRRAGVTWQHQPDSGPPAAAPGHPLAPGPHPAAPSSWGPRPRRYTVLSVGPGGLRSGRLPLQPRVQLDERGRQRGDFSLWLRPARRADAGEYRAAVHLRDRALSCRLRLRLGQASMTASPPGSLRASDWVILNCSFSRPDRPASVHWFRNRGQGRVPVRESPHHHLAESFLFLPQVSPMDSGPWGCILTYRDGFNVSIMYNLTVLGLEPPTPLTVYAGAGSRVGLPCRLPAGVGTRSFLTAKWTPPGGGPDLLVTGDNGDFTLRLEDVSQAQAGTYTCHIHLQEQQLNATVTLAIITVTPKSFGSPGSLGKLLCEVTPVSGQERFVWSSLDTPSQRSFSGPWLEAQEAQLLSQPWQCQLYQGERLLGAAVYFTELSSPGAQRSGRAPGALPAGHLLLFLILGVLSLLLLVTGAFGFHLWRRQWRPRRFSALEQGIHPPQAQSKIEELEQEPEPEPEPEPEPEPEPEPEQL
Kind of assay: flow cytometry on 293T-LAG3 cells.

Assay [4] concerns the target T4, PD1-His (Kyinno, Cat No.: KP-1023) (UniProt Q15116 25-167, limits assumed).
T4 construct: bought protein; not shown: His tag
Kind of assay: BLI (ForteBio Octet), PD1-His as mobile phase.

In assay [5] the target is T5, human PD1 expressed on 293T-PD1 cells (human, UniProt Q15116 25-288).
T5 construct: whole, on cells; 293T cells stably expressing human PD1 (Kyinno KC-0204); also called PD1-expressing cells; Jurkat NFAT-PD1-luc cells
T5 sequence (Q15116 25-288): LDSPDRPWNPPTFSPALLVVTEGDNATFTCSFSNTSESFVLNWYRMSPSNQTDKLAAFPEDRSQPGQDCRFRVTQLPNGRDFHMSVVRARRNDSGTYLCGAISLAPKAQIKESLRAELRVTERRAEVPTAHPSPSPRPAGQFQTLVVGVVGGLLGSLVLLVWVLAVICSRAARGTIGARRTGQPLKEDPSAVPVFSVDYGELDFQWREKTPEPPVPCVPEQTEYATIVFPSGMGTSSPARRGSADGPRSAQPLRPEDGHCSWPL
Kind of assay: flow cytometry on 293T-PD1 cells.

Assay [6] addresses T6, PD1-mFc (fusion protein of the human PD1 extracellular domain and mouse IgG2a-Fc) (human; mouse, UniProt Q15116 25-170).
T6 construct: extracellular domain; not shown: mouse IgG2a-Fc, Genbank AAH31470.1
The assay is described as follows: flow cytometry, blocking of PD1-mFc binding to 293T-PDL1 cells.

Assay [7] deals with T7, human EGFR expressed on CT26-EGFR cells (human, UniProt P00533 25-1210). Kind of assay: cell-based or functional assay.
For assay [8], the target named is T7, human EGFR expressed on CT26-EGFR cells. The assay is described as follows: flow cytometry, blocking of EGF-mFc binding to CT26-EGFR cells.
Assay [9] has as its target T8, human PDL1 expressed on 293T-PDL1 cells (human, UniProt Q9NZQ7 19-290).
T8 construct: whole, on cells; in the signalling assays PDL1 stood on 293T OS8-hPDL1 cells (Kyinno KC-1148); also called PDL1-expressing cells; 293T OS8-hPDL1 cells
The assay is described as follows: flow cytometry on 293T-PDL1 cells.

For assay [10], the target named is T9, PDL1-His (Kyinno, Cat No.: KP-1022) (UniProt Q9NZQ7 19-238, limits assumed).
T9 construct: not shown: His tag
T9 sequence (Q9NZQ7 19-238 limits assumed): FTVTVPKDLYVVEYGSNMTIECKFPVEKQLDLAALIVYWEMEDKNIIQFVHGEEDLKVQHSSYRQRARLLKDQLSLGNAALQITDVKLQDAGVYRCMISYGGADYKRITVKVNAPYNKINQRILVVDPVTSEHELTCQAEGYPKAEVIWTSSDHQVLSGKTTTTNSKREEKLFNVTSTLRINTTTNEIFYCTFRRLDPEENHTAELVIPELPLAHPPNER
The assay is described as follows: BLI (ForteBio Octet), PDL1-His as mobile phase.

Assay [11] addresses T7, human EGFR expressed on CT26-EGFR cells. The assay is described as follows: flow cytometry on CT26-EGFR cells.
Assay [12] deals with T10, EGFR-His (Kyinno, Cat No.: KP-1150) (UniProt P00533 25-645, limits assumed).
T10 construct: bought; not shown: His tag
The assay is described as follows: BLI (ForteBio Octet), EGFR-His as mobile phase.

The target in assay [13] is T11, PDL1-mFc (fusion protein of the human PDL1 extracellular domain and mouse Fc; Kyinno, Cat No.: KP-1008) (human; mouse, UniProt Q9NZQ7 19-238).
T11 construct: extracellular domain; bought; also called human PDL1-mFc; not shown: mouse Fc
T11 sequence (Q9NZQ7 19-238): as the sequence (Q9NZQ7 19-238 limits assumed) above
The assay is described as follows: flow cytometry, blocking of PDL1-mFc binding to 293T-PD1 cells.

The target in assay [14] is T8, human PDL1 expressed on 293T-PDL1 cells. The assay is described as follows: cell-based or functional assay.

T8 sequence (Q9NZQ7 19-290): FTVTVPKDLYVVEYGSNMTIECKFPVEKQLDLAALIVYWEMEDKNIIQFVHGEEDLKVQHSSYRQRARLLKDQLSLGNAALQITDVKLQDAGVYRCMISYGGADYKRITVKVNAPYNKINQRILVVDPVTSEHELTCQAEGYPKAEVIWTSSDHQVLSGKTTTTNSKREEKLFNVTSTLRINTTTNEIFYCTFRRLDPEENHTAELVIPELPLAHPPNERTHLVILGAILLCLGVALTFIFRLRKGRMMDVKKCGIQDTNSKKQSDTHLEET
T4 sequence (Q15116 25-167 limits assumed): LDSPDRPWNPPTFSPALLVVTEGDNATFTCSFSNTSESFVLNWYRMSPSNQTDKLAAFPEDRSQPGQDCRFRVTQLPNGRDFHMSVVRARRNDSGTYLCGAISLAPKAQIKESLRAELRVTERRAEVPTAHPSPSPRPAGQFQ
T6 sequence (Q15116 25-170): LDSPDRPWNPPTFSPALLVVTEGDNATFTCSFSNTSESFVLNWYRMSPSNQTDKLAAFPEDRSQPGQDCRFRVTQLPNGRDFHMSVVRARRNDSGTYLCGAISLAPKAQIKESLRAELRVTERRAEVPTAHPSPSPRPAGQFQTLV

B1: KA-1782 H28G2-7V4-hIgG4M (antibody, V domains shown)
VH: QVQLQESGPGLVKPSETLSLTCTVSGYSFTSGYYWNWIRQPPGKGLEWIGYVSYFGTANYNPALKNRVTISRDTSKNQFSLKLSSVTAADTAVYYCARGEEWDWSFDVWGQGTTVTVSS
VL: DIQITQSPSSLSASVGDRVTITCSATSGVSYMHWYQQKPGKAPKRLIYDTSRLASGVPSRFSGSGSGTDYTLTISSLQPEDFATYYCQQWSSNPPYTFGQGTRLEIKR
notes: anti-LAG3 humanized antibody, human IgG4 (S228P) / kappa
With B1, in assay [1], the dissociation constant (Kd) worked out at 0.174 nM, the dissociation rate constant (koff) was 0.000153 s⁻¹ and the kon was 881000 M⁻¹ s⁻¹. The molecule also yielded an IC50 in assay [2] of 0.476 µg/mL. In assay [3], this molecule returned an EC50 of 0.0674 µg/mL.

B2: KA-1807 H107D12-10V4-hIgG4M (antibody, V domains shown)
VH: QVQLVESGGGLVKPGGSLRLSCAASGFTFSDYGMHWIRQAPGKGLEWVAYISSGSYTIYYADTVRDRFTISRDSAKNSLYLQMNSLRAEDTAVYYCVRRGPGYFGSTALDYWGQGTTVTVSS
VL: B1 VL
notes: anti-PD1 humanized antibody, human IgG4 (S228P) / kappa; also called KA-1807 H107D12-10V4-hlgG4M
In assay [4], B2 showed a Kd of 6.96 nM, an off-rate constant (koff) of 0.00143 s⁻¹ and a kon of 205000 M⁻¹ s⁻¹. Moreover, it took 0.193 µg/mL to reach a half-maximal effect in assay [5] (EC50). The same molecule registered a half-maximal inhibitory concentration (IC50) in [6] of 0.158 µg/mL.

B3: KA-2073 H22A12×58E3-CLC02 (bispecific antibody, human IgG1, kappa)
heavy 1: not shown
heavy 2: not shown
light: DIQLTQSPSTLSASVGDRVTITCSATSSIGYMHWYQQKPGTSPKRWIYDTSKLASGVPSRFSGSGSGTEYTLTISSLQPDDFATYYCQLWSSDPPYTFGQGTRLEIKRTVAAPSVFIFPPSDEQLKSGTASVVCLLNNFYPREAKVQWKVDNALQSGNSQESVTEQDSKDSTYSLSSTLTLSKADYEKHKVYACEVTHQGLSSPVTKSFNRGEC
notes: EGFR×PDL1 bispecific; first heavy chain targets EGFR (hIgG1 Knob), second targets PDL1 (hIgG1 Hole); common light chain 3
Regarding B3, the “IC50, luciferase reporter (procedure of Example 34)” value in assay [7] amounted to 1.05 nM. Moreover, the concentration for half-maximal inhibition (IC50) was 0.0123 µg/mL in assay [8] and 0.129 µg/mL in [13]. Also, the EC50 in assay [9] was 0.521 µg/mL; in assay [11], 0.0358 µg/mL. For the same molecule, the Kd in assay [10] worked out at 0.602 nM; in [12], 5.64 nM. Moreover, the koff in assay [10] amounted to 0.00126 s⁻¹; in assay [12], 0.00449 s⁻¹. Further, the results for the kon in assay [10] and in assay [12] were 2.09e+06 M⁻¹ s⁻¹ and 796000 M⁻¹ s⁻¹, respectively. Further, the “IC50, luciferase reporter (procedure of Example 30)” value in assay [14] turned out to be 0.429 nM.

B4: KA-1773 M107D12-10CLC1-hIgG4M (antibody, V domains shown)
VH: B2 VH with V5K, R19K, I37V, G42E, S78T, Y80F, N84T, A88S, V93M, V118L
VL: QIVLTQSPAIMSASPGEKVTMTCSATSGVSYMHWYQQKSGTSPKRWIYDTSRLASGVPARFSGSGSGTSYSLTISSMEAEDAATYYCQQWSSNPPYTFGSGTKLEIKR
notes: anti-PD1 chimeric antibody, human IgG4 (S228P) / kappa
Consider B4, for which, in assay [5], the EC50 came to 0.265 µg/mL. The molecule also came in with a 50% inhibitory concentration (IC50) in [6] of 0.256 µg/mL.

B5: KA-1728 M28G2-7CLC1-hIgG4M (antibody, V domains shown)
VH: DVKLQESGPGLVKPSQSLSLTCSVTGYSFTSGYYWNWIRLFPGNKLEWMGYVSYFGTNNYNPSLKNRFSITRDTSKNQFFLKLNSVSTEDTATYYCARGEEWDWSFDVWGTGTTVTVSS
VL: B4 VL
Molecule B5 gave a 50% inhibitory concentration (IC50) in [2] of 0.805 µg/mL. In assay [3], this molecule came in with a 50% effective concentration (EC50) of 0.118 µg/mL.

B6: KA-1733 M28G2-7CLC2-hIgG4M (antibody, V domains shown)
VH: B5 VH
VL: B4 VL with T26S, G28S, R52K
Molecule B6 returned an IC50 in assay [2] of 0.563 µg/mL. Moreover, the midpoint of the response in assay [3], the EC50, lay at 0.0649 µg/mL.

B7: KA-1774 M107D12-10CLC2-hIgG4M (antibody, V domains shown)
VH: B2 VH with V5K, R19K, I37V, G42E, S78T, Y80F, N84T, A88S, V93M, V118L
VL: B4 VL with T26S, G28S, R52K
B7 gave a concentration for a half-maximal effect (EC50) in assay [5] of 0.272 µg/mL. The molecule further registered an IC50 in assay [6] of 0.218 µg/mL.

B8: KA-2072 H22A12×58E3-CLC01 (bispecific antibody, human IgG1, kappa)
heavy 1: not shown
heavy 2: not shown
light: DIQITQSPSSLSASVGDRVTITCSATSGVSYMHWYQQKPGKAPKRLIYDTSRLASGVPSRFSGSGSGTDYTLTISSLQPEDFATYYCQQWSSNPPYTFGQGTRLEIKRTVAAPSVFIFPPSDEQLKSGTASVVCLLNNFYPREAKVQWKVDNALQSGNSQESVTEQDSKDSTYSLSSTLTLSKADYEKHKVYACEVTHQGLSSPVTKSFNRGEC
notes: EGFR×PDL1 bispecific; first heavy chain targets EGFR (hIgG1 Knob), second targets PDL1 (hIgG1 Hole); common light chain 1
Regarding B8, in assay [7], the “IC50, luciferase reporter (procedure of Example 34)” value came out at 1.01 nM. For the same molecule, the IC50 in [8] is 0.0155 µg/mL; in assay [13], 0.122 µg/mL. Also, the values for the 50% effective concentration (EC50) in assay [9] and in assay [11] were 0.422 µg/mL and 0.0393 µg/mL, respectively. The Kd turned out to be 0.464 nM in [10] and 4.21 nM in assay [12]. The koff in [10] was 0.000426 s⁻¹; in [12], 0.00295 s⁻¹. Further, the figures for the kon in [10] and in assay [12] were 918000 M⁻¹ s⁻¹ and 701000 M⁻¹ s⁻¹, respectively. The “IC50, luciferase reporter (procedure of Example 30)” value in [14] stood at 0.372 nM.
